“And” between values parts separate entries of the source, which are not always exact repeats. Equal values may be shown once. Read-outs that look alike come from different tables or passages of the source.
B4: S135Q-HSPB5, full-length oligomer (natural protein)
chain: MDIAIHHPWIRRPFFPFHSPSRLFDQFFGEHLLESDLFPTSTSLSPFYLRPPSFLRAPSWFDTGLSEMRLEKDRFSVNLDVKHFSPEELKVKVLGDVIEVHGKHEERQDEHGFISREFHRKYRIPADVDPLTITQSLSSDGVLTVNGPRKQVSGPERTIPITREEKPAVTAAPKK

Columns and labels:
[1] = target: the molecule itself
[2] = target: T1, Alpha-B-crystallin CTR CTR (Homo sapiens, UniProt P02511)
T1 chain: ERTIPITRE

[3] = target: B4; assay: SEC
[4] = target: T2, S135Q/E117C full-length HSPB5 oligomer (human, UniProt P02511 1-175, E117C | S135Q); assay: cross-linking
T2 sequence: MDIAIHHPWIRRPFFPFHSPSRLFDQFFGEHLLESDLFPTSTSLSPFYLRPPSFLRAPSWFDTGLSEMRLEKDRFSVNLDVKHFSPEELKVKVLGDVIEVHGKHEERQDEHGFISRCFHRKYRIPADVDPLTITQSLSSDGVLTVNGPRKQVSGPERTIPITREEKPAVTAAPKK

[5] = target: T3, E117C-HSPB5, full length (oligomeric) (human, UniProt P02511 1-175, E117C); assay: cross-linking
T3 sequence: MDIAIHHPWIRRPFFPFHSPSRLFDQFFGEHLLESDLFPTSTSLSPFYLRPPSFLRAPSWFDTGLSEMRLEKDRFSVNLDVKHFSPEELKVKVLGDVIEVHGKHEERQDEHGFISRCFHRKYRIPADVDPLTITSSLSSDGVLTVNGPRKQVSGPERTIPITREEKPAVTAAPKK

[6] = target: B4; assay: SEC; remark: listed apart in the source
[7] = target: the molecule itself; assay: SEC
[8] = target: T4, ΔN-HSPB6 (residues 65-160) (human, UniProt O14558 65-160); assay: NMR titration
T4 sequence: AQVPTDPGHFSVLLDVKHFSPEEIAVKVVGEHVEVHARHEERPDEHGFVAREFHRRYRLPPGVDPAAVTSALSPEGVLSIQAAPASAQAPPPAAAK

B1: Alpha-B-crystallin ACD ACD (protein)
chain: GLSEMRLEKDRFSVNLDVKHFSPEELKVKVLGDVIEVHGKHEERQDEHGFISREFHRKYRIPADVDPLTITSSLSSDGVLTVNGPRKQV
**Q.** Which Kd [1] does the source give for B1 here?
**A.** The Kd was about 2 µM.

**Q.** And the Kd [2]?
**A.** Its Kd is about 100 µM.

**Q.** Does B1 bind [3]?
**A.** Result: binds

B2: E117C-ACD-only (HSPB5 residues 64-152, E117C) (domain or fragment)
chain: GLSEMRLEKDRFSVNLDVKHFSPEELKVKVLGDVIEVHGKHEERQDEHGFISRCFHRKYRIPADVDPLTITSSLSSDGVLTVNGPRKQV
modifications: disulfide-locked dimer through C117 under nonreducing conditions
**Q.** Does B2 bind [4]?
**A.** Result: binds

**Q.** Does B2 bind [5]?
**A.** Result: binds

B3: HSPB6, full length, C46S (natural protein)
chain: MEIPVPVQPSWLRRASAPLPGLSAPGRLFDQRFGEGLLEAELAALSPTTLAPYYLRAPSVALPVAQVPTDPGHFSVLLDVKHFSPEEIAVKVVGEHVEVHARHEERPDEHGFVAREFHRRYRLPPGVDPAAVTSALSPEGVLSIQAAPASAQAPPPAAAK
**Q.** Does B3 bind [6]?
**A.** Result: binds

**Q.** What about the “stoichiometry N” value [7] of the same binder?
**A.** The value was 2 and 4.

**Q.** Does PERTIPITREEK [HSPB5-CTR peptide PERTIPITREEK] bind [8]?
**A.** Result: binds

**Q.** Does B4 bind [7]?
**A.** Result: binds

— article PMC4512712 (Biochemistry, 2015)
